Several values for one entry are separate records, joined by “and”; a condition that tells them apart may be missing. Identical values can stand only once.
What was measured:
TRF2 = TRF2 (UniProt Q15554); assay: AFM imaging; conditions: N = 126; same conditions as T270; EMSA: 5 nM DNA, 100 nM TRF2, agarose gel; buffer, salt, pH and temperature not given in the material; AFM compaction comparison of TRF2ΔB at 300 nM protein
[1] = target: T1, TRF2 (full length, recombinant His6-tagged) (human), Q15554; assay: AFM volume analysis; TRF2 protein alone deposited on mica; AFM volume converted to oligomeric state by a calibration curve of volume against molecular weight; monomer to dimer; conditions: remark: other sources report otherwise
T1 chain: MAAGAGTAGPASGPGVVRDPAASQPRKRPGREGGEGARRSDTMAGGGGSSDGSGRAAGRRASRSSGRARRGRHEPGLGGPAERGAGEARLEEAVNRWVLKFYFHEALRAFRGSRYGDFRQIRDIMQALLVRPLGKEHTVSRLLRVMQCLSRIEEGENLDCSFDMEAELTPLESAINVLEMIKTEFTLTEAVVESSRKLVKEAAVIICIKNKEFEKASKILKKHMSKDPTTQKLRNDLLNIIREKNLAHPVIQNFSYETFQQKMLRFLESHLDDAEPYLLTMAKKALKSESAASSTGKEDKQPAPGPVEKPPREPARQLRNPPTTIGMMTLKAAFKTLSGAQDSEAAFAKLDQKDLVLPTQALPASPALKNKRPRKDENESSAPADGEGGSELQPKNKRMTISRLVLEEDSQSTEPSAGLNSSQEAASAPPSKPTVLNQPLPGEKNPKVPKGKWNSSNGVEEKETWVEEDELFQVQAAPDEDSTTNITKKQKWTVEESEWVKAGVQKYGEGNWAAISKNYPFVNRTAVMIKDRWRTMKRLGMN

[2] = target: T1, TRF2 (full length, recombinant …); assay: AFM volume analysis; TRF2 (400 nM, mixed with an equal volume of DNA) incubated with linear T270 DNA (270 TTAGGG repeats) for 30 min in 50 mM HEPES, 150 mM KCl, pH 7.5, diluted 10 fold and deposited on mica; volumes of small DNA-bound complexes (< 500 nm^3); conditions: remark: other sources report otherwise

Question: For DNA with no telomeric sequences, which binding signal (% DNA with large complexes) (TRF2) is on record?
Answer: The binding signal (% DNA with large complexes) was under 8.

B1: TRF2 (full length, recombinant His6-tagged), Q15554 1-542 (natural protein)
chain: T1 chain
Question: Which stoichiometry N [1] does the source give for B1 here?
Answer: Its stoichiometry N is 2.

Question: What about the stoichiometry N [2] of the same molecule?
Answer: Its stoichiometry N is 2 and 4.

Source: publication PMC4746636
